Experimental findings from US20260125468A1 (NONA BIOSCIENCES SUZHOU, published 2026) are described below.

For assay [1], the target named is T1, hCD3e&g-his, Human CD3 epsilon & CD3 gamma Heterodimer Protein with His Tag (Acro Biosystems, CDG-H52W5) (Human, UniProt P07766 23-126; P09693 23-116).
T1 construct: Bought protein; also called human CD3E&G heterodimer protein; not shown: His Tag fused to C-terminus of CD3 epsilon chain
Description: ELISA, plate coated with human CD3e&g-his at 1 µg/mL, anti-human IgG Fc-HRP [D]. How it is done:
(§1) ELISA assays were conducted as briefly described: CD3 proteins were coated onto ELISA plates at 1 μg/mL; testing antibodies OKT3 and PR006364 (A1-HCAb) were diluted from 2 μg/mL to 8 different concentrations by 3-fold serial dilution, or testing antibodies PR006370 (SP34) and PR010991 (3G11-HCAb) were diluted from 100 nM to 11 different concentrations by 2-fold serial dilution; secondary antibody (anti-human IgG Fc-HRP) was used to detect PR006364, PR006370 and PR010991, and secondary antibody (anti-mouse IgG Fc-HRP) was used to detect OKT3 binding signal. The absorption signal at 450 nm (OD450) was recorded by plate reader (Molecular Devices, SpectraMax), and the data were processed and non-linear curve fitting analyzed by GraphPad Prism 8.
Background: An ELISA detects its analyte on a solid surface through an enzyme-linked reagent.

The target in assay [2] is T2, hCD3e-his, Human CD3 epsilon Protein with His Tag (Acro Biosystems, CDE-H5223) (Human, UniProt P07766 23-126).
T2 construct: Bought protein; also called human CD3E monomeric protein; monomeric CD3E; not shown: His Tag
Description: ELISA, plate coated with human CD3e-his at 1 µg/mL, anti-human IgG Fc-HRP [E]. How it is done: as §1

The target in assay [3] is T3, Biotinylated cynomolgus CD3e&d protein (Acro Biosystems, CDD-C82W6) (cynomolgus, UniProt Q95LI5 22-117; Q95LI8 22-105, biotinylated protein; chain and site not stated).
T3 construct: Bought protein loaded on SA Octet biosensors
Description: BLI (Octet RED96e), biotinylated antigen on SA biosensors, antibody 1.5-24 nM. How it is done: (§2) To determine the binding affinities of anti-CD3 antibodies to human or cynomolgus monkey CD3e&d heterodimer proteins, bio-layer interferometry (BLI) assays were carried out by using Octet® RED96e.
(§3) Biotinylated human CD3e&d protein (Acro Biosystems, CDD-H82W6) or biotinylated cynomolgus CD3e&d protein (Acro Biosystems, CDD-C82W6) was first loaded onto the surface of SA Octet biosensors (Sartorius, 18-5019) to reach capture levels between 0.5-0.8 nm. The loaded biosensors were then dipped in wells containing 2-fold serial dilutions of testing antibodies to detect association signals, followed by dissociation steps in wells containing kinetic buffer. The association phase was 180 seconds, and the dissociation phase was 900 seconds. The sensorgrams were recorded, and the reference signals were subtracted before curve fitting using ForteBio Data Analysis 11.0 software. Association rates (kon) and dissociation rates (koff) were calculated using a simple one-to-one Langmuir binding model. The equilibrium dissociation constant (KD) was calculated as the ratio of koff/kon.
(In BLI a coated tip is dipped into the sample, and binding shifts an interference pattern.)

The target of assay [4] is T4, Biotinylated human CD3e&d protein (Acro Biosystems, CDD-H82W6) (human, UniProt P07766 23-126; P04234 22-105, biotinylated protein; chain and site not stated).
T4 construct: Bought protein loaded on SA Octet biosensors; also called human CD3 protein
The description is as above. As for the experimental part:
as §2, §3

Assay [5] has as its target T5, cynoCD3e&d-his, Cynomolgus CD3 epsilon & CD3 delta Heterodimer Protein (Acro Biosystems, CDD-C52W4) (Cynomolgus, UniProt Q95LI5 22-117; Q95LI8 22-105).
T5 construct: Bought protein; also called cynomolgus CD3E&D heterodimer protein; not shown: His Tag fused to C-terminus of CD3 epsilon chain; Flag Tag fused to C-terminus of CD3 delta chain
Description: ELISA, plate coated with cyno CD3e&d-his at 1 µg/mL, anti-human IgG Fc-HRP [C]. As for the experimental part:
as §1

Assay [6] has as its target T6, hCD3e&d-his, Human CD3 epsilon & CD3 delta Heterodimer Protein with His Tag (Acro Biosystems, CDD-H52W1) (Human, UniProt P07766 23-126; P04234 22-105).
T6 construct: Bought protein; also called human CD3E&D heterodimer protein; not shown: His Tag fused to C-terminus of CD3 epsilon chain
Nature of the assay: ELISA, plate coated with human CD3e&d-his at 1 µg/mL, anti-human IgG Fc-HRP [B]. How it is done:
as §1

Assay [7] has as its target T7, hCD3d-his, Human CD3 delta Protein with His Tag (Acro Biosystems, CDD-H5224) (Human, UniProt P04234 22-105).
T7 construct: Bought protein; also called monomeric CD3D; not shown: His Tag
Description: ELISA, plate coated with human CD3d-his at 1 µg/mL, anti-human IgG Fc-HRP [F]. How it is done: as §1

In assay [8] the target is T8, CD3 on T cells in cynomolgus monkey PBMCs (cynomolgus monkey, UniProt Q95LI5 22-198; Q95LI8 22-171; Q95LI7 23-181).
T8 construct: whole, on cells
Description: FACS on cynomolgus monkey PBMCs, 2-fold serial dilution from 200 nM [B]. How it is done: (§4) The cross reactivity to cynomolgus monkey for 3G11-HCAb (PR010991) and derived B7H4xCD3 PR008551 was evaluated by assays of binding activity to cynomolgus monkey PBMCs by FACS method and T cell mediated cytotoxicity with cynomolgus monkey PBMCs by RTCA method. In this example, Anti-CD3/TCR HCAb PR006361 derived from patent WO2016180982A1 and its derived B7H4xCD3 PR006001 were used as control antibodies. These antibodies are generated as described in Example 8.
(§5) Cynomolgus monkey PBMCs were isolated from 10 mL fresh cynomolgus monkey blood using Ficoll Paque Plus (Cytiva 17-1440-02) following the vendor's instructions. The recombinant antibodies were diluted from 200 nM to 11 different concentrations by 2-fold serial dilution. The diluted samples were incubated with cynomolgus monkey PBMCs for 1 hour, and then the secondary antibody (Alexa Fluor®488 AffinityPure Goat Anti-Human IgG (Fcγ Fragment Specific), Jackson ImmunoResearch, 109-545-098) was added and incubated for 1 hour. The cells were washed twice with staining buffer and subjected to flow cytometry. The data were processed by FlowJo v10 (FlowJo, LLC) and non-linear curve fitting analyzed by GraphPad Prism 8.

The target of assay [9] is T8, CD3 on T cells in cynomolgus monkey …. Description: FACS on cynomolgus monkey PBMCs, 2-fold serial dilution from 200 nM [A]. As for the experimental part:
as §4, §5

The target in assay [10] is T3, Biotinylated cynomolgus CD3e&d protein …. Nature of the assay: BLI (Octet RED96e), biotinylated antigen on SA biosensors. As for the experimental part:
as §2, §3

Assay [11] has as its target T4, Biotinylated human CD3e&d protein (Acro …). Description: BLI (Octet RED96e), biotinylated antigen on SA biosensors, antibody 0.375-12 nM. How it is done: as §2, §3
Another assay concerns the target T9, human CD3e&d-llamaFc.
T9 construct: also called hCD3e&d-llamaFc; Human CD3 epsilon & CD3 delta Heterodimer Protein fused with Llama Fc (Acro Biosystems, CDD-H5258); not shown: The llama Fc, any linker to it, and which chain or chains carry it
T9 epsilon: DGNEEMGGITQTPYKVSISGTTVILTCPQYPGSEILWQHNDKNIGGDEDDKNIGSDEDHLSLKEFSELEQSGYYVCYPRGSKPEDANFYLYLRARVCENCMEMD
T9 delta: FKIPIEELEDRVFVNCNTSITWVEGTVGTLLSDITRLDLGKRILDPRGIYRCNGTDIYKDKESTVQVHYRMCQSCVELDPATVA
Description: ELISA, plate coated with human CD3e&d-llamaFc at 1 µg/mL, anti-human IgG Fc-HRP [A]. As for the experimental part:
as §1

The target in assay [12] is T10, CD3/TCR complex on Jurkat cells (ATCC, TIB-152) and Jurkat-NFAT-Luc reporter cells (human, UniProt P07766 23-207; P04234 22-171; P09693 23-182; P20963 22-164).
T10 construct: whole, on cells; also called CD3/TCR-positive Jurkat cells; TCR/CD3 complex
Nature of the assay: FACS on Jurkat cells, purified antibody [A]. As for the experimental part: The binding activities to target cells for the supernatants A1-monoFc (PR005860) and E2-monoFc (PR005861) were evaluated by FACS. The supernatants of the recombinant antibodies (i.e. A1-monoFc, E2-monoFc) were diluted from bulk solution to 8 different concentrations by 3-fold serial dilution. […] The cells were washed twice with staining buffer and subjected to flow cytometry. The data were processed by FlowJo v10 (FlowJo, LLC) and non-linear curve fitting analyzed by GraphPad Prism 8.
The binding activities to Jurkat and J.RT3-T3.5 cells for purified A1-HCAb (PR006364), E2-HCAb (PR006365) were determined by FACS, following the method described in Example 2. As shown in (A) and (B of FIG. 8, PR006364 and PR006365 can bind to Jurkat cells but not to J.RT3-T3.5 cells, which is consistent with the result in FIG. 1.

Assay [13] deals with human CD3E&D heterodimer protein (construct not specified; FIG. 9A and FIG. 12) (human, UniProt P07766 23-126; P04234 22-105). Description: ELISA on coated human CD3e&d heterodimer protein (construct not named on the sheet).

T3 sequence (Q95LI5 22-117, chain 1 of 2): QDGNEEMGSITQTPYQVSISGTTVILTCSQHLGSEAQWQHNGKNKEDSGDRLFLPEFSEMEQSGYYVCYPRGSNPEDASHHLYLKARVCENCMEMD
T3 sequence (Q95LI8 22-105, chain 2 of 2): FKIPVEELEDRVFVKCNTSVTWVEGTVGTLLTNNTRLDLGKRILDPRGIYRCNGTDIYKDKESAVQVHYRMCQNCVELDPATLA
T8 sequence (Q95LI5 22-198, chain 1 of 3): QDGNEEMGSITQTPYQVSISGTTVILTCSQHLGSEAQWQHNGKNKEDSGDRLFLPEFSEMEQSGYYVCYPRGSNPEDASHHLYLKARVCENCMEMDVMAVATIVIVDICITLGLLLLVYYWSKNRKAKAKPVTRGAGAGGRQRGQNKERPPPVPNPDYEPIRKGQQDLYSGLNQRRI
T8 sequence (Q95LI8 22-171, chain 2 of 3): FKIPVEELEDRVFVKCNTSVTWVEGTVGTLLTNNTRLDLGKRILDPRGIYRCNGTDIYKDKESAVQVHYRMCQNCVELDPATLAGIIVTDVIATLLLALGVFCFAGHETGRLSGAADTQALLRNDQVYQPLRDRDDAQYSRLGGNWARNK
T8 sequence (Q95LI7 23-181, chain 3 of 3): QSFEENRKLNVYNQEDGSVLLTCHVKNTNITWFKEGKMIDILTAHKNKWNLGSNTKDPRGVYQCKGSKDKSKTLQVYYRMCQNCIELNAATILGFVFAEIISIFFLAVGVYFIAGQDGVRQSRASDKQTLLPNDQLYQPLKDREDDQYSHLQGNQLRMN
T10 sequence (P09693 23-182, chain 3 of 2): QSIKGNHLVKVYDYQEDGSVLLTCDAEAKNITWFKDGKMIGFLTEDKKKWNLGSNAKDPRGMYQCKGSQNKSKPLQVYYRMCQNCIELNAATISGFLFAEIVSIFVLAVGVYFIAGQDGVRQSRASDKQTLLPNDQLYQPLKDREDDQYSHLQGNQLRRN
T10 sequence (P20963 22-164, chain 4 of 2): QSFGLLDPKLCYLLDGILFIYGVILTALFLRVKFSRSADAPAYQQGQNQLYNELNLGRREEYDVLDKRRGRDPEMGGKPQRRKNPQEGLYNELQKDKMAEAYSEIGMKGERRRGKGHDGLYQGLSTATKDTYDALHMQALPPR
T5 sequence (Q95LI5 22-117, stated change not applied, chain 1 of 2): as the sequence (Q95LI5 22-117, chain 1 of 2) above
T5 sequence (Q95LI8 22-105, stated change not applied, chain 2 of 2): as the sequence (Q95LI8 22-105, chain 2 of 2) above
T1 sequence (P09693 23-116, one chain of several): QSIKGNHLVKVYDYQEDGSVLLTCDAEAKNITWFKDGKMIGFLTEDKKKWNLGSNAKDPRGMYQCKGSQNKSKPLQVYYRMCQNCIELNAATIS

B1: PR010991, anti-CD3 3G11-HCAb hIgG1(C220S, AAA) (antibody, V domains shown)
VH: RVHLAESGGGLVQAGGSLRLSCAASGSRLNDNAMAWFRQAPGKEREFVGSIFWTGGNTYYADAVKGRLTISRDNAKNALYLQMNSLKPEDTAVYYCAASRVVWYYCSGYGCSRAGDYVYWGQGTQVTVSS
notes: Heavy-chain-only antibody, human IgG1 Fc (C220S, L234A, L235A, G237A)
Regarding B1, the binding result in assay [1], in assay [2] and in [7] was “no binding (tested: 100 nM)” in each case. Moreover, the Kd in assay [3] and in assay [4] was below 0.001 nM throughout. For the same molecule, the koff in assay [3] and in assay [4] was below 1e-07 s⁻¹ throughout. The kon (as a rule, a measure of how fast the partners come together) in assay [3] was 708000 M⁻¹ s⁻¹; in assay [4], 906000 M⁻¹ s⁻¹. The EC50 (read off the curve) (in general, the concentration giving half of the maximal effect) in [5] is around 2 nM; in assay [6] it was around 0.9 nM.

B2: PR006001, anti-B7H4xCD3 VH(PR006361)-Fc-scFv(PR003366), hIgG1(dCH1, KiH, LALA) (bispecific antibody)
chain 1: not shown
chain 2: EIVMTQSPASLSVSPGERATLSCRASQSVSSNLAWYQQKPGQAPRLLIYGASTRATGIPARVSGGGSGTEFTLTISSLQSEDFAVYYCQQYKNWPFTFGPGTKLEIKGGGGSGGGGSGGGGSGGGGSQVQLVQSGAEVKKPGSSMRVSCKASEDTFSSYAISWVRQAPGQGLEWMGGTAPIFGTTNYAQKFQGRVTITADKSTSTAYMELSSLRSEDTAVYYCARGGPYFDYWGQGTLVTVSSASEPKSSDKTHTCPPCPAPEAAGGPSVFLFPPKPKDTLMISRTPEVTCVVVDVSHEDPEVKFNWYVDGVEVHNAKTKPREEQYNSTYRVVSVLTVLHQDWLNGKEYKCKVSNKALPAPIEKTISKAKGQPREPQVCTLPPSREEMTKNQVSLSCAVKGFYPSDIAVEWESNGQPENNYKTTPPVLDSDGSFFLVSKLTVDKSRWQQGNVFSCSVMHEALHNHYTQKSLSLSPGK
notes: Control bispecific; anti-CD3 VH-Fc chain and anti-B7H4 scFv-Fc chain
B2: the binding result in assay [8] is “no binding (tested: 200 nM)”.

B3: PR006361, anti-CD3/TCR HCAb hIgG1(AAG) from WO2016180982A1 (antibody, V domains shown)
VH: EVQLVESGGGPVQAGGSLRLSCAASGRTYRGYSMGWFRQAPGKEREFVAAIVWSGGNTYYEDSVKGRFTISRDNAKNTMYLQMTSLKPEDSATYYCAAKIRPYIFKIAGQYDYWGQGTQVTVSS
notes: Control heavy-chain-only antibody from prior art; C220S and AAG mutations
As for B3, the binding result was “no binding (tested: 200 nM)” in [9] and “no binding (tested: 12.5-200 nM)” in assay [10].

B4: PR006364, anti-CD3 A1-HCAb hIgG1(C220S, AAG) (antibody, V domains shown)
VH: RIRLVESGGGLVQAGGSLRLSCAASGRTSGIPAMAWFRQAPGKEREFVAMAWSGGGTIYGDSVKNRFTISRDNTQNTIFLQMNSLKPEDTALYYCAAGRSTSNRADQYNYWGQGTQVTVSS
notes: Heavy-chain-only antibody, VHH fused to conventional human IgG1 Fc (C220S, L234A, L235A, P329G)
B4: in assay [11], the Kd (usually the equilibrium constant for the complex coming apart) amounted to 0.0342 nM. In assay [11], the koff (in general, the first-order rate constant of dissociation) came out at 2.49e-05 s⁻¹. Further, the kon in assay [11] is 727000 M⁻¹ s⁻¹. The “EC50 (read off the curve)” value with human CD3e&d-llamaFc is around 0.03 µg/mL; in assay [12], around 2 nM; in [13], around 0.7 nM.
